Laboratory results as given in patent US9688764B2, “Methods of treating breast cancer by administering anti-human prolactin receptor (PRLR) antibodies” (REGENERON PHARMACEUTICALS, INC., priority 2013, dated 2017).

How the values were obtained:
T47D cells = experiment: Cell viability (cell kill) assay; format: cell-based; conditions: T47D, Table 12, 3 days; for IC50: read-out: IC50
Outline: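 T47D cells grown overnight, then exposed 3 days to anti-PRLR ADCs (DM1 via non-cleavable SMCC linker, or other maytansinoid toxins) or free DM1-SMe, 500 nM to 5 pM. Viability by CCK8 OD450, digitonin background subtracted, as % of untreated; IC50 from 10-point four-parameter fit. PRL (15 nM) co-incubation tested separately.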

MCF7/PRLR tumors = experiment: Tumor growth inhibition in xenograft-bearing mice; format: in vivo, NCr nude mice; conditions: multi-dose trial 1, 5 and 15 mg/kg
Description: (§1) Briefly, 20×10^6 MCF7/PRLR cells (ATCC HTB-22 transfected with full length hPRLR as previously described) were implanted subcutaneously into the left mammary fat pad of female NCr nude mice. In other studies, 10×10^6 PC3/PRLR (ATCC CRL-1435 transfected with full length hPRLR as previously described) were implanted subcutaneously into the left flank of male SCID mice. Additionally, 10×10^6 parental T47D (ATCC HTB-133) or […] T47D#11 cells (ATCC HTB-133 serially passaged in vivo as described below) were subcutaneously implanted into the left flank of female CB17 SCID mice. All mice were obtained from Taconic (Hudson, N.Y.). Each bolus of cells was supplemented with a 90-day estrogen release pellet (1.7 mg/pellet; Innovative Research America, Sarasota Fla.). Once tumors had reached an average volume of 250 mm^3, mice were randomized into groups of seven and dosed with anti-PRLR antibody-drug conjugates of the invention or control reagents. Control reagents included PBS vehicle, free methyl-disulfide DM1 (DM1-SMe) and isotype Control 1-DM1.
(§2) In multi-dose studies, mice were dosed once a week for a total of three weeks with tumor volumes and body weights being monitored twice weekly throughout the study. Test ADCs were dosed at 5 and/or 15 mg/kg in the multi-dose studies. In single-dose studies, mice received a single dose of test ADC, and tumor volumes and body weights were monitored twice weekly throughout the study. Test ADCs were dosed at 1, 2.5, 5, and 15 mg/kg in the single-dose studies. Average tumor size as well as tumor growth inhibition relative to the vehicle treated group were calculated for each group. Tumors were measured with calipers twice a week until the average size of the vehicle group reached 1000 mm^3. Tumor size was calculated using the formula (length×width^2)/2. Tumor growth inhibition was calculated according to the following formula: (1−((Tfinal−Tinitial)/(Cfinal−Cinitial)))*100, where T (treated group) and C (control group) represent the mean tumor mass on the day the vehicle group reached 1000 mm^3. […] Results are summarized in Tables 21-25 (multi-dose) and Table 26 (single dose). (NT=not tested in the particular experiment shown).

PC3/hPRLR cells = experiment: Cell viability (cell kill) assay; format: cell-based, human; conditions: PC3/PRLR; Table 11; 3 days
Outline: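 PC3 and PC3/hPRLR (lipofection-generated, FACS-enriched for PRLR) cells exposed 3 days to anti-PRLR ADCs or free DM1-SMe, 500 nM to 5 pM. Viability by CCK8 OD450, digitonin background subtracted, as % of untreated; IC50 from four-parameter fit of 10-point curves.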

PC3 cells = experiment: Cell viability (cell kill) assay; format: cell-based; conditions: Table 11, 3 days
Description: (§3) PRLR-overexpressing cells, including HEK293, PC3, MCF7 and NCI-N87, were generated to assess the ability of anti-PRLR conjugated antibodies to reduce cell viability. For comparative purposes, PC3 and T47D cells with overexpressed ErbB2 were also generated, as well as an MCF7 cell line over-expressing both hPRLR and hErbB2. Briefly, Lipofectamine® 2000-mediated transfection methodology was utilized to generate HEK293 cells expressing human PRLR (HEK293/hPRLR) or human ErbB2 (HEK293/hErbB2). Lipofectamine LTX with Plus Reagent was used to generate PC3 cells expressing human PRLR (PC3/hPRLR) or human ErbB2 (PC3/hErbB2). Lentiviral-mediated transduction was utilized to generate MCF7 cells expressing human PRLR (MCF7/hPRLR), NCI-N87 cells expressing human PRLR (NCI-N87/hPRLR), T47D cells over-expressing human ErbB2 (T47D/hErbB2), and MCF7 cells expressing both human PRLR and human ErbB2 (MCF7/hPRLR/hErbB2). All lines were selected for at least two weeks in complete growth media plus appropriate selection reagents. Stably expressing populations were enriched for PRLR expression via FACS using the anti PRLR antibody Control I.
(§4) Next, the ability of anti-PRLR-DM1 antibody-drug conjugates (i.e., anti-PRLR antibodies conjugated to DM1 via a non-cleavable linker [SMCC]) to reduce cell viability was determined using in vitro cell based assays. Cells were seeded in PDL-coated 96 well plates at 1500 to 10000 cells per well in complete growth media and allowed to grow overnight. For cell viability curves, ADCs or free DM1 (as the methyl disulfide derivative DM1-SMe) were added to the cells at final concentrations ranging from 500 nM to 5 pM and incubated for 3 days. The 293, PC3 and T47D cells were incubated with CCK8 (Dojindo, Rockville, Md.) for the final 1-3 hours and the absorbance at 450 nm (OD450) was determined on a Flexstation3 (Molecular Devices, Sunnyvale, Calif.). MCF7 cells were treated with Hoechst 33342 nuclear stain while being fixed with 4% formaldehyde. Images were acquired on the ImageXpress micro XL (Molecular Devices, Sunnyvale, Calif.) and nuclear counts were determined via Columbus image analysis software (Perkin Elmer, Shelton, Conn.). Background OD450 values (PC3, 293, and T47D) or nuclear counts (MCF7) from digitonin (40 nM) treated cells was subtracted from all wells and viability was expressed as a percentage of the untreated controls. IC50 values were determined from a four-parameter logistic equation over a 10-point response curve (GraphPad Prism).
Finally, the potency of anti-PRLR antibodies conjugated to DM1 via the non-cleavable linker SMCC was compared to the cell killing potency of anti-PRLR antibodies conjugated to MMAE via the cleavable linker: mc-vc-PAB (available from Concortis, San Diego, Calif.). Cells used in this experiment were PC3, PC3/hPRLR, MCF7/ATCC and MCF7/PRLR.

MCF7 (MCF7/ATCC) cells = experiment: Cell viability (cell kill) assay, nuclear counts; format: cell-based; conditions: MCF7; Table 12; 3 days
Outline: (§5)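 Anti-PRLR ADCs or free DM1-SMe were added at 500 nM to 5 pM final to cells seeded overnight and were incubated 3 days. MCF7 lines were fixed with 4% formaldehyde plus Hoechst 33342, and nuclei were counted by imaging, with digitonin […] background subtracted. Viability was expressed as % of untreated cells, and IC50 was obtained from a 4-parameter fit of a 10-point curve.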

[1] = test system: MCF7/hPRLR (MCF7/PRLR) cells; experiment: Cell viability (cell kill) assay, nuclear counts; format: cell-based, human; conditions: Table 12, 3 days
Outline: as §5

HEK293 (293) cells = experiment: Cell viability (cell kill) assay; format: cell-based; conditions: 293; Table 11; 3 days
Outline: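 Anti-PRLR–DM1 ADCs (non-cleavable SMCC linker) or free DM1-SMe, 500 nM to 5 pM for 3 days on parental or hPRLR-overexpressing lines. HEK293: CCK8 OD450; MCF7: Hoechst nuclear counts by imaging.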

PC3/PRLR tumors = experiment: Tumor growth inhibition in xenograft-bearing mice; format: in vivo, SCID mice
Description: as §1, §2

[2] = Conjugate characterization: protein and linker/payload concentrations, payload loading (UV, MALDI-TOF, SEC-HPLC, RP-HPLC); format: physicochemical; conditions: Anti-PRLR-SMCC-DM1 conjugates; Table 9
Description: Selected anti-PRLR antibodies were conjugated to the maytansinoid DM1 through an SMCC linker using methods similar to those set forth in U.S. Pat. No. 5,208,020 and US Patent Application Publication No. 2010/0129314, the disclosures of which are incorporated by reference herein in their entireties. The conjugates were purified by size exclusion chromatography and sterile filtered. All starting materials and solvents were purchased commercially and used without purification, unless otherwise noted.
Protein and linker/payload concentrations were determined by UV spectral analysis and MALDI-TOF mass spectrometry. Size-exclusion HPLC established that all conjugates used were >95% monomeric, and RP-HPLC established that there was <0.5% unconjugated linker payload. Yields are reported in Table 8 and 9 based on protein. All conjugated antibodies were analyzed by UV for linker payload loading values according to Hamblett et al, 2004, Clinical Cancer Research 10(20):7063-7070, and by mass difference, native versus conjugated.

[3] = test system: HEK293/hPRLR (293/hPRLR) cells; experiment: Cell viability (cell kill) assay; format: cell-based, human; conditions: 293/PRLR, Table 11, 3 days; for IC50: read-out: IC50
Description: as §3, §4

Molecule | % Kill (T47D cells) [%] | IC50 (T47D cells) [nM] | effect on MCF7/PRLR tumor growth (MCF7/PRLR tumors) | % Kill (PC3/hPRLR cells) [%] | IC50 (PC3/hPRLR cells) [nM] | IC50 (PC3 cells) [nM] | % Kill (MCF7 (MCF7/ATCC) cells) [%] | IC50 (MCF7 (MCF7/ATCC) cells) [nM] | % Kill [1] [%] | IC50 [1] [nM] | % Kill (HEK293 (293) cells) [%] | IC50 (HEK293 (293) cells) [nM] | Average Tumor Growth Inhibition (%) (PC3/PRLR tumors; PC3/PRLR tumors TRIAL #1, multi-dose 15 mg/kg, SCID mice, Day 63) | effect on PC3/PRLR tumor growth (PC3/PRLR tumors; multi-dose, especially at 15 mg/kg) | Payload:Antibody Molar Ratio (MS) [2] | Payload:Antibody Molar Ratio (UV) [2] | % Kill [3] [%] | IC50 [3] [nM]
H1H6975N-DM1 (conjugate) VH: EVHLVESGGGLVQPGGSLRLSCAASGFTFSSYEMNWVRQTPGKGLEWISHISSRSVIIYYADSVKGRFTISRDNAKNSLFLQMNSLRAEDTAVYFCAGITIFGIPEYWGQGTLVTVSS VL: EIVLTQSPATLSLSPGERATLSCRASQSVSSYFAWYQQKPGQAPRLLIYDASSRATGIPTRFSGSGSGTDFTLTISSLEPEDFAVYYCQQRSSWPITFGQGTRLEIK | 80 | 6.9 | potently inhibited MCF7/PRLR tumor growth | 68 | 2.7 | 200 | 73 | 150 | 87 | 0.49 | 87 | 100 | 38 | demonstrated inhibition of tumor growth | – | – | – | –
H1H6959N2-DM1 (conjugate) VH: EVQLVESGGGLVQPGRSLRLSCAASGFTFDDYAMHWVRQAPGKGLEWVSGISWHSGIIGYADSVKGRFTISRDNAKNSLYLQMNSLRTEDAALYYCAKIGSYFYFDSWGQGTLVTVSS VL: EIVLTQSPGTLSLSPGERATLSCRASQSVSSNYLAWYQQKPGQAPRLLIYGASSRATGIPDRFSGSGSGTDFTLTISRLEPEDFAVYYCQQFGSSGYTFGQGTNLEIK | 71 | 48.9 | – | 82 | 11.6 | – | 82 | 100 | 80 | 0.47 | 100 | – | – | – | 3.3 | 3.8 | 95 | 4.82
H1H6960N-DM1 (conjugate) VH: EVQLVESGGGLVKPGGSLRLSCAASGITFSSYSMNWVRQAPGKGLEWVSSISTRSSLIHYADSVKGRFTISRDNAKNSLYLQMNSLRDEDTAVYYCARWDAAAAFDYWGQGTLVIVSS VL: DIQLTQSPSFLSASVGDRVTITCWASQGISSYLAWYQQKPGKAPKLLIYVASTLQSGVPSRFSGSGSGTEFTLTISSLQPEDFATYFCQQLNSYPLTFGGGTKVEIK | 71 | 5.1 | – | 82 | 1.13 | – | 77 | 100 | 78 | 0.29 | 100 | – | – | – | 3.0 | 3.6 | 95 | 0.38
